B1: Platelet-activating factor acetylhydrolase IB subunit beta (Mus musculus), P63005 (parent)
chain: MVLSQRQRDELNRAIADYLRSNGYEEAYSVFKKEAELDMNEELDKKYAGLLEKKWTSVIRLQKKVMELESKLNEAKEEFTSGGPLGQKRDPKEWIPRPPEKYALSGHRSPVTRVIFHPVFSVMVSASEDATIKVWDYETGDFERTLKGHTDSVQDISFDHSGKLLASCSADMTIKLWDFQGFECIRTMHGHDHNVSSVAIMPNGDHIVSASRDKTIKMWEVQTGYCVKTFTGHREWVRMVRPNQDGTLIASCSNDQTVRVWVVATKECKAELREHEHVVECISWAPESSYSSISEATGSETKKSGKPGPFLLSGSRDKTIKMWDVSTGMCLMTLVGHDNWVRGVLFHSGGKFILSCADDKTLRVWDYKNKRCMKTLNAHEHFVTSLDFHKTAPYVVTGSVDQTVKVWECR
partner: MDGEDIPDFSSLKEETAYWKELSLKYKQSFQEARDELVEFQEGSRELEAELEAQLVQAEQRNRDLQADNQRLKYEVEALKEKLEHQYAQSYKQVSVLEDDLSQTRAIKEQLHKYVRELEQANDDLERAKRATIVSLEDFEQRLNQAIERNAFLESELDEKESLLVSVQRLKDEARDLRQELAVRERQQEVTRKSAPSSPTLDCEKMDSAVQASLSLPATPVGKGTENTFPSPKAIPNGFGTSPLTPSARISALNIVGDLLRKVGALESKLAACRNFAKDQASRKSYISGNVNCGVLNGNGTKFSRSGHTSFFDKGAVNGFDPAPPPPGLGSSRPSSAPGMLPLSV

Variants of: B1
Conditions: with ndel1_human NDEL1, Q9GZM8

| effect of a mutation on the interaction | Variant |
| --- | --- |
| disrupting interaction | R212A |
| with no effect | K147A |

Reference: IntAct's records for PubMed 22114287
